Assay: yeast display, Sf9 membrane polyspecificity reagent, FACS + sequencing; frameworks hold sequencing errors
Method in brief: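 Nanobodies came from a synthetic yeast display library in Saccharomyces cerevisiae BJ5465, induced with galactose for 36–48 hours and stained for 1 hour at 4 °C with 10% biotinylated, detergent-solubilized Sf9 membrane reagent. Cells were enriched on streptavidin microbeads and then FACS-sorted, with low and high (top ~1%) gates set on anti-HA fluorescence for expression and streptavidin fluorescence for reagent binding. Each polyreactivity label reflects the gate a clone came from. Genes were amplified by colony PCR, sequenced by MiSeq 2 × 250 and filtered by CDR length.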

Sequence | polyreactivity (PSR sort gate)
QVQLVESGGGLVQAGGSLRLSCAASGSTFPSNAMGWYRQAPGKERELVAAISRGGGTTYYADSVKGRFTISRDNAKNTVYLQMNSLKPEDTAVYYCATRGSVGWFDGGGYWGQGTQVTVSS | high polyreactivity
QVQLVESGGGLVQAGGSLRLSCAASGSTFPSNAMGWYRQAPGKERELVAAISRSGGSTNYADSVKGRFTISRDNAKNTVYLQMNSLKPVDTAVYYCKADLGRATFYQRVFIERGGYWGQGTQVTVSS | low polyreactivity
QVQLVESGGGLVQAGGSLRLSCAASGSTFPSNAMGWYRQAPGKERELVAAISRSGGSTYYADSVKGRFTISRDNAKNTVYLQMNSLKPEDTAVYFCAVQVRPNSGGTRIHRGGYDYWGQGTQVTVSS | low polyreactivity
QVQLVESGGGLVQAGGSLRLSCAASGSTFPSYAMGWYRQAPGKESELVAAITNGGSTTYADSVKGRFTISRDNAKNTVYLQMNSLKPEDTAVYYCAARYYYYYYYIRRDYWGQGTQVTVSS | low polyreactivity
QVQLVESGGGLVQAGGSLRLSCAASGSTFPTNAMGWYRQAPGKERELVADINGNGGRTYYADSVKGRFTISRDNAKNTVYLQMNSLKPEDTAVYYCAVEPDVYPSWYYYVDYDYWGQGTQVTVSS | low polyreactivity
QVQLVESGGGLVQAGGSLRLSCAASGSTFPTYAMGWYRPAPGKERELVAAITRGGRTYYADSVKGRFTISRDNAKNTVYLQMNSLKPEDTAVYYCAAVYYGAAQYNYWGQGTQVTVSS | high polyreactivity
QVQLVESGGGLVQAGGSLRLSCAASGSTFPTYAMGWYRQAPGKERELVAAITWSGGSTYYADSVKGRFTISRDNAKNTVYLLMNSLKPEDTAVYYCAKSTGYGRRQKRYDWGQGSQVTVSS | high polyreactivity
QVQLVESGGGLVQAGGSLRLSCAASGSTFPVNAKGWYRPAPGKERQLVATIRWTGGGTYYADSVKGRFTISRDNAKNTVYLQMNSLKPEDTAVYYCAADPPWEWSDYGYDYWGQGTQVTVSS | low polyreactivity
QVQLVESGGGLVQAGGSLRLSCAASGSTFPVYAMGWYRQAPGKERELVAAITSGGSTYYADSVKGRFTISRDNAKNTVYLQMNSLKPEDTAVYYCAAEDSSPAYNHWGHGTQVTVSS | low polyreactivity
QVQLVESGGGLVQAGGSLRLSCAASGSTFPWYDMGWYRQAPGKERELVADISGGTRTYYADSVKGRFTISRDNAKNTVYLQMNSLKPEDTAVYYCAVGYYWNEPLYWYGDFDYWGQGTQVTVSS | high polyreactivity
QVQLVESGGGLVQAGGSLRLSCAASGSTFPYNAMGWYRQAPGKERELVAAISWSGGRTYYADSVKGRFTISRDNAKNTVYLQMNSLKPEDTAVDYCAKAVKQYGFYYWGQGTQVTVSS | high polyreactivity
QVQLVESGGGLVQAGGSLRLSCAASGSTFPYNAMGWYRQAPGKERELVAAITGRGGSTYYADSVKGRFTISRDNAKNTVYLQMNSLKPEDTAVYYCAARYLYLLYYWGQGTQVTVSS | high polyreactivity
QVQLVESGGGLVQAGGSLRLSCAASGSTFPYNTMGSYIQAPGKESELVATIRSRGDSTYFADSVKGRFTISRDNAKNTVYFQMNSLKPEDTAFYYCNADPRTLWWSRPYYSWGQGTQVTVSS | high polyreactivity
QVQLVESGGGLVQAGGSLRLSCAASGSTFPYYAMGWYRQAPGKERELVAAITSSASTYYADSVKGRFTISRDNAKNTVYLQLNSPKPEDTADYYCPVRSPYRLSPWRVGYWGQGTQVTVSS | high polyreactivity
QVQLVESGGGLVQAGGSLRLSCAASGSTFQFYAMGWYRQAPGKERELVAAIRSSDDSTYYADSVKGRFTSSRDNAKNTVYLQMNSLKPEDTAVYYCAAVQDYYGVWYDYWGQGTQVTVSS | high polyreactivity
QVQLVESGGGLVQAGGSLRLSCAASGSTFQFYAMGWYRQAPGKERELVAVITSGDDTNYADSVKGRFTISRDNAKNTVYLQMNSLKPEDTAVYYCAVEYILVYTRVRSYWFDYWGQGTQVTVSS | low polyreactivity
QVQLVESGGGLVQAGGSLRLSCAASGSTFQGYAMGWYRQAPGKERELVAAINYSGGSTYYADSVKGRFTISRDNAKNTVYFQMNSLKPEDTAVYYCAVKLRSRAVTSYGYWGQGTQVTVSS | high polyreactivity
QVQLVESGGGLVQAGGSLRLSCAASGSTFQGYAMGWYRQAPGKERELVARISYTGASTYADSVKGRFTISRDNAKNTVYLQMNSLKPDDTAVYYCNAGGYRYRSYDYWGQGTQVTVSS | high polyreactivity
QVQLVESGGGLVQAGGSLRLSCAASGSTFQLYAMGWYRQAPGKERELVAAISGIGDSTYYADSVKGRFTISRDNAKNTVYLQMNSLKPEDTAVYYCAREFSDGLSGKFDYWGHGTQVTVSS | low polyreactivity
QVQLVESGGGLVQAGGSLRLSCAASGSTFQLYAMGWYRQAPGKESELVASISWSGGSTYYADSVKGRFTISRDNAKNTVYLQMNSLKPEDTAVYYCAADSRLYLRDDYWGQGTQVTVSS | low polyreactivity
QVQLVESGGGLVQAGGSLRLSCAASGSTFQPNAMGWYRQAPGKERELVAAISKSDGRTYYADSVKGRFTISRDNAKNTVYLQMNSLQPEDTAVYNCAADAYWEPKVGFSLFDYWGQGTQVTVSS | low polyreactivity

Sequence | polyreactivity (PSR sort gate)
QVQLVESGGGLVQAGGSLRLSCAASGSTFQPYAMGWYRQAPGKERELVAAITFSGGSTYYADSVKGRFTISRDNAKNTVYLQMNSLKPEDTAVYYCAAYRRPDYGSWGQGTQVTVSS | high polyreactivity
QVQLVESGGGLVQAGGSLRLSCAASGSTFQSKAMGWYRQAPGKERELVAAINSGTSTYYADSVKGRFTISRDNAKNTVYLQMNSLKPEDTAVYYCAADGIWGEYYYSELGDYDYWGQGTQVTVSS | low polyreactivity
QVQLVESGGGLVQAGGSLRLSCAASGSTFQSYAMGRYRQAPGKERELVAAISFSGGSTYYADSVKGRFTISRDNAKNTVYLQMNSLKPEDTAVYYCAKRGWVYFHGYDYWGQGTQVTVSS | low polyreactivity
QVQLVESGGGLVQAGGSLRLSCAASGSTFQSYAMGWYRQAPGKERELVAAIDIGDSTYYADSVKGRYTISRDNAKNTVYLQMNSLKPEDTAVYYCAADDEDVLFDYWGQGTQVTVSS | low polyreactivity
QVQLVESGGGLVQAGGSLRLSCAASGSTFQSYAMGWYTQAPGKERELVAAISARGGTTYYADSVKGRFTISRDNAKNTVYLQMNSLKPEDTAVYYCAAEWDTNFWYDYWGQGTQVTVSS | low polyreactivity
QVQLVESGGGLVQAGGSLRLSCAASGSTFQSYTMGWYRQAPGKERELVATITSTSSTSYADSVKGRFTISRDNAKNTVYLQMNSLKPEDTAVYYCNAEGLHWGQVTQVTVSS | low polyreactivity
QVQLVESGGGLVQAGGSLRLSCAASGSTFQVYAMGWYRQAPGKERELVASITSGGITYYADSVKGRFTISRDNAKNTVYLQMNSLKPEDTAVYYCAVDIRQSGELQRLFLYDYWGQGTQVTVSS | low polyreactivity
QVQLVESGGGLVQAGGSLRLSCAASGSTFQVYTKGWYIQAPGKEREFVASISWSGSSTYYADSVKGRFTISRDNAKNTVYLQMNSLKPEDTAVYYCAARARIKYLADPGYYWGQGTQVTVSS | high polyreactivity
QVQLVESGGGLVQAGGSLRLSCAASGSTFQYNAMGWYRQAPGKERELVAAITGSGGSTYYADSVKGRFTISRDNAKNTVYLQMNSLKPEDTAVYYCAKLVRSFNWVLARHKYDYWGQGTQVTVSS | low polyreactivity
QVQLVESGGGLVQAGGSLRLSCAASGSTFQYYAMGWSRQAPGKERELVAAISYGGSRTYYADSVKGRFTISRDNAKNTVYLQMNSLKPEDTAVYYCAKEKYRALAPYYYWGQGTQVTVSS | high polyreactivity
QVQLVESGGGLVQAGGSLRLSCAASGSTFQYYAMGWYRQAPGKERELVAAISSGGSTYYADSVKGRFTISRDNAKNTVYLQMNSLKPEDTAVYYCAADFVKRQANRQFDYWGQGTQVTVSS | high polyreactivity
QVQLVESGGGLVQAGGSLRLSCAASGSTFQYYAMGWYRQAPGKERELVATISTSGGRTYYADSVKGRFTISRDNAKNTVYLQMNSLKPEDTAVYYCAKRRYSTYYWTFDYWGQGTQVTVSS | high polyreactivity
QVQLVESGGGLVQAGGSLRLSCAASGSTFRANAMGWYRQAPGKERELVAAISWSGGRTYYADSVKGRFTISRDNAKNTVYLQMNSLKPEDTAVYYCAAVTTQYIYSVPYYYWGQGTQVTVSS | high polyreactivity
QVQLVESGGGLVQAGGSLRLSCAASGSTFRCYAMGGYRQATGKERELVAAIRSAGSTDYADSVKGRFTISRDNAKITVYLQMNILKQEDTAVYYCAAYFRYRSSRYGYWGQGTQVTVSS | high polyreactivity
QVQLVESGGGLVQAGGSLRLSCAASGSTFRFNTMGWYRQAPGKERELVAAISYSGGSTYYADSVKGRFTISRDNAKNTVYLQMNSLKPEDTAVYYCAVQAWYLTYSYPYSKGYYWGQGTQVTVSS | high polyreactivity
QVQLVESGGGLVQAGGSLRLSCAASGSTFRFNTMGWYRQAPGKERGLVACIAAGTTTNYADSVKGRFTISRDNAKNTVYLQMNSLKPEDAAVYYCAALNAFNTGHWYWGQGTQVTVSS | low polyreactivity
QVQLVESGGGLVQAGGSLRLSCAASGSTFRFYAMGWYRQAPGKERELVAVISFNDGSTYYADSVKGRFTISRDNAKNTVYLQMNSLKPEDTAVYYCATDELDSWWYEYEYWGQGTQVTVSS | low polyreactivity
QVQLVESGGGLVQAGGSLRLSCAASGSTFRFYAMGWYRQEPGKERELVAAITSSGGSTYYADSVKGRFTISRDNAKNTVYLQMNSLKPEDTAVYYCNAYPNPVSYELDYWGQGTQVTVSS | low polyreactivity
QVQLVESGGGLVQAGGSLRLSCAASGSTFRGYAMGSYRQAPGKETELVATITSGGSTNYADSVKGRFTISRDNAKNTVSLQMNSLKPEDTAVYYCNARWVPSYWKYFHANYGYWGQGTQVTVSS | high polyreactivity
QVQLVESGGGLVQAGGSLRLSCAASGSTFRGYAMGWYRQAPGKERELVAAISRADITNYADSVKGRFTISRDNAKNTVYLQMNSLKPEDTAVYYCNAGVGARESDYWGQGTQVTVSS | low polyreactivity

From the nanobody polyreactivity screen of Harvey et al. (2022)
